Source: the supplement of paper PMC10126150
± gives the standard deviation of the averaged measurements.

Test system: ATP
Experiment: switch fluorescence ratio, 500 uM ATP over buffer (Cy3 cluster intensity, sum of 5 cycles each) (fold (ratio)); higher = stronger signal-on switching upon ATP binding; sequences stand for … in TCGTCGGCAGCGTCAGATGTGTATAAGAGACAGTTTTTTTTTTTTTTTTTTTTTTTTT…TC
Details: aptamer strand: ATP DNA aptamer (quencher-CACCTGGGGGAGTATTGCGGAGGAAGG + anchor), 100 nM annealed; ATP concentration: 500 uM
Summary of the method: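 Five buffer/ATP imaging cycles were run on Cy3-labelled switching-strand clusters on a modified Illumina MiSeq flow-cell, with NaOH stripping and re-annealing between cycles. In each cycle, clusters annealed to 100 nM quencher-labelled ATP aptamer were imaged in selection buffer, then after 15 min with 500 uM ATP at 22 °C. Per cluster, the fluorescence ratio is summed target-cycle over summed buffer-cycle Cy3 intensity, averaged per switch-domain sequence. Only clusters within 100-1000 RFU were kept.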
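Also: ATP exposure 15 min at 22 °C before imaging.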

Sequence	switch fluorescence ratio
TATGAGGCCA	1.04 ± 0.023
AGTAGGAAGC	1.01 ± 0.03
TGTCAAAAAT	0.982 ± 0.043
AGGTAAAGTA	0.915 ± 0.025
CACTAGGCTT	1 ± 0.045
TTTAGGGAGT	0.985 ± 0.015
TGGAGTTTAA	1 ± 0.026
AGGGTTGGCT	1.02 ± 0.052
TCGAGGAAGT	0.999 ± 0.062
CGTTGGAATG	0.981 ± 0.015
ATGGTCTTTT	1.014 ± 0.0032
ATATGCCCT	1.04 ± 0.03
TACTGGGACG	1.004 ± 0.0068
GTATGAGTAG	0.992 ± 0.035
GGGTTACAGC	1 ± 0.026
GATTAACCTA	1.013 ± 0.003
GGTGATTTTA	1 ± 0.025
TTAATCGTGC	0.98 ± 0.043
TGGTAAGGGG	1.12 ± 0.25
TGGTTGAAAA	0.875 ± 0.033
TATTGAAATT	1.05 ± 0.022
TAAACACCTG	1.02 ± 0.095
TAAGTGAAAA	0.995 ± 0.0094

Sequence	switch fluorescence ratio
TATATCGGAC	1 ± 0.014
CGAGGGGCAC	0.997 ± 0.013
CGTGCTGGGA	1.03 ± 0.033
CAAAGTTGGA	1.01 ± 0.017
ATTTGCATGG	1.09 ± 0.2
AGGTGGGGTT	0.996 ± 0.051
ATCGCCCGTT	1.01 ± 0.016
TGACCTCTTA	0.992 ± 0.024
CGCGTTGGGG	1.03 ± 0.044
ACGGGCCGGG	1.02 ± 0.12
GGAGGGCGTG	0.988 ± 0.021
ACGTTTGAGG	0.988 ± 0.014
TAGTAGTTAT	0.9858 ± 0.0052
TAAGGTGATG	1.01 ± 0.046
GACGCTAGGG	1 ± 0.052
TGGGGAAATT	1.01 ± 0.022
GAATACTTGG	1.04 ± 0.054
AATTTGGGGT	0.995 ± 0.035
AGGTAATTAG	1 ± 0.012
GATTTTCGCG	1.02 ± 0.037
CATGTGGACG	1.1 ± 0.02
ATCGATGAGC	1.006 ± 0.004
TTGTAGTCTT	0.991 ± 0.022

Sequence	switch fluorescence ratio
AAGGCGAAAA	0.976 ± 0.013
CGAATACATA	1.1 ± 0.011
CATGCCTTGT	1.009 ± 0.0059
ACCGGGGGGT	1.37 ± 0.22
GCGCTTAAGT	0.986 ± 0.043
AAGGGGCCCC	1.31 ± 0.49
TTCGTTTAGT	1.039 ± 0.0026
TATGAGCGCT	1.03 ± 0.054
GGACAGTTGT	1.01 ± 0.057
TGGTTCGGTG	0.977 ± 0.016
ACGGGCGGCA	1.16 ± 0.23
CGGTGTGTGC	1.04 ± 0.026
TTCAGGCATG	0.999 ± 0.04
TGCGTCCCAA	1.34 ± 0.021
TGGCACGCGG	0.986 ± 0.019
TAAATTTGTA	0.99 ± 0.028
CGGTCAAAAA	1.03 ± 0.033
TTGATAAAGT	0.997 ± 0.0043
GGTTAAGATG	0.986 ± 0.01
GAGGAACCGG	1.05 ± 0.021
GATACGGACA	1.42 ± 0.019
GAGTTTAGGT	1.02 ± 0.011
AAATTTTCC	1.34 ± 0.065

Sequence	switch fluorescence ratio
GCAAGATTGA	0.999 ± 0.044
TATAGGGCC	1 ± 0.017
TTGTACTACC	1.1603 ± 0.00036
ATGCATGGAG	1.03 ± 0.016
GGTTTTGCAC	1.03 ± 0.038
GTTGGAATTG	0.992 ± 0.024
GGGGGTCCGA	0.9855 ± 0.0042
TTAGCGAGTT	0.979 ± 0.014
AGTGCGGCCG	0.9846 ± 0.0036
TGGTGAGTTT	0.984 ± 0.019
TCAGCCTAGG	1.02 ± 0.023
GATATCAGGG	0.978 ± 0.037
TTATGCAAAG	1.1 ± 0.15
TAGGGGTATG	1.06 ± 0.096
GGACCAGGGA	1 ± 0.046
ATAGCTTGTG	0.996 ± 0.023
GTGTTACGTT	1.02 ± 0.021
CAGCTCTGGG	1 ± 0.022
CGTAGGTAAT	1.01 ± 0.04
TTATCGGGG	0.942 ± 0.053
ATGCAAACGA	1.23 ± 0.065
GTGGGGCGGT	0.9832 ± 0.006
GTGGGGGGGG	0.995 ± 0.038

Sequence	switch fluorescence ratio
AAGTACGGAG	1.04 ± 0.052
TAAGAGGTGT	1.04 ± 0.062
TTCTTTTACG	1.049 ± 0.0082
CATTACAGCC	1.09 ± 0.028
TTAGAGGGA	1 ± 0.047
CCCGACTTTA	1.04 ± 0.014
TCTTACAGTA	1.09 ± 0.04
GTTCGGTGGA	1 ± 0.041
TAAGTTAGCC	1.049 ± 0.005
GGTTAGGTGG	0.99 ± 0.044
TCGATGGATG	1.025 ± 0.0058
AAAGTATTTG	1.01 ± 0.05
ACTAGTAGTC	0.994 ± 0.012
TTCGGGAAGC	1.018 ± 0.0056
GAGGGTTTGT	0.973 ± 0.039
TTATGATGGT	0.992 ± 0.018
GATTCGTATT	0.9757 ± 0.0047
CGGGGGGATC	1.02 ± 0.058
CGAAACGGGG	0.983 ± 0.042
TTTGTGCCTT	1.1 ± 0.12
GCCCGCTAAT	2.25 ± 0.052
CGTATTTTAC	1.08 ± 0.038
CGTGTGTTGC	1 ± 0.024

Sequence	switch fluorescence ratio
CTTCAGGTTG	1.016 ± 0.0024
ATAGGCGTCG	0.967 ± 0.032
GGGGATGAAA	0.989 ± 0.011
GGGTCATAGT	1.012 ± 0.0094
TGGTGCTCAT	0.994 ± 0.024
CGCTTAGCCA	1.01 ± 0.021
GCTGGCTGGC	1.01 ± 0.11
AAAGGTAATT	1.01 ± 0.015
TTCTGAAGC	3.69 ± 1
CGGACGACGG	1.01 ± 0.027
TAGATTTCGT	0.9797 ± 0.0052
TTTTGATTTC	1.02 ± 0.039
CCTTTGGGTC	0.98 ± 0.014
GGGGGGGCAG	0.986 ± 0.017
CGTTGGGGTG	1.03 ± 0.063
GTGTAAAGGC	0.96 ± 0.021
TATGGGGGTA	1.01 ± 0.029
CGGCAAGTAT	1.063 ± 0.0089
GTGTGAGATT	1.02 ± 0.024
TTGGGGTATG	1.01 ± 0.012
AGATGTTAGG	0.981 ± 0.029
TTTTAGTCAT	1.01 ± 0.014
GACACGGGCG	1.044 ± 0.0035

Sequence	switch fluorescence ratio
TTGATTCAAT	1.17 ± 0.33
CTTTGGGTTG	1 ± 0.02
CCCGGGTTGG	1.12 ± 0.08
CCGTTGTTTG	0.979 ± 0.011
ATATGTTGTT	0.98 ± 0.025
TTTATTTGAT	0.9955 ± 0.0012
TTTTGCGCTG	0.94 ± 0.019
CAAGTGTTCG	0.996 ± 0.03
GCGTCTGGGC	0.992 ± 0.015
GCCTTAGCTC	1.04 ± 0.015
GTGAGGGAAC	0.9729 ± 0.0052
CACTCCCGGA	1.15 ± 0.16
TGATGATGGG	0.985 ± 0.038
AGTCTTAGTC	0.9497 ± 0.002
CGGTTAGTTC	0.946 ± 0.023
TTTCGGAGTG	1.024 ± 0.0066
GGGGGACTTA	0.998 ± 0.043
GTGATTTTAT	0.969 ± 0.028
CCGTTGGGGG	1.01 ± 0.036
